According to PMC10786891, “Massively parallel profiling of RNA-targeting CRISPR-Cas13d”:

T1: EsCas13d, nuclease-dead (Eubacterium siraeum, UniProt B0MS50, R295A;H300A;R849A;H854A)
T1 sequence: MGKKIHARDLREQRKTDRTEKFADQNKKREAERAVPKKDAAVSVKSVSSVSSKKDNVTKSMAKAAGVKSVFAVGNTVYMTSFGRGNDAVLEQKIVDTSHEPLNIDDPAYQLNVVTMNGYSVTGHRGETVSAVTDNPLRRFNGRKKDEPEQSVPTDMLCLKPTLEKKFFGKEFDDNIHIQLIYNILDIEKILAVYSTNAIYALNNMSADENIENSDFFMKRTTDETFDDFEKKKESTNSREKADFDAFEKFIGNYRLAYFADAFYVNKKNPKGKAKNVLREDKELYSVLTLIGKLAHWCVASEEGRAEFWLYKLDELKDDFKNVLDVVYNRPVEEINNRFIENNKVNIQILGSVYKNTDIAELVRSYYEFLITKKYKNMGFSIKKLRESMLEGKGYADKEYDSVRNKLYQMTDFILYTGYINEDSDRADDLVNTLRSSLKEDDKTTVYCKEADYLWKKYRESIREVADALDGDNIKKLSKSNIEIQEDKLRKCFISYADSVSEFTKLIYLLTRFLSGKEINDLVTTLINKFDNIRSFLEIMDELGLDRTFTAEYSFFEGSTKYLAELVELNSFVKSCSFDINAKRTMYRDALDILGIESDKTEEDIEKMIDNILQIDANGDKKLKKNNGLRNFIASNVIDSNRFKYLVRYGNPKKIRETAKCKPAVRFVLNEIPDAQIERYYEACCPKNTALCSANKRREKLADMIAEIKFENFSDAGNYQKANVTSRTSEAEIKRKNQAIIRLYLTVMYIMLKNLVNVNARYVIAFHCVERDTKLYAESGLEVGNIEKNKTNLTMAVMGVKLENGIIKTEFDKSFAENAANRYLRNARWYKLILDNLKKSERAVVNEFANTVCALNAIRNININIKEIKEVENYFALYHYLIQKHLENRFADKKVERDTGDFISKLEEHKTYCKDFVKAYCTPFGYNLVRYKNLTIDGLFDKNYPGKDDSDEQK

B1: target 2 MT 5'PFS GGA 3'PFS CCA (mixed)
RNA 1: CACCCGUGCAAAAUUGCAGGGGUCUAAAACCUUCUCCAAAUUGUUUCAUCCU
RNA 2: GGGAAUGGAUCCACAUCUACGAAUUCGGAAGGAUGAAACAAUUUGGAGAAGCCAAGAUCGGAAGAGCACACGU
B2: target 2 MT 5'PFS UAA 3'PFS UGC (mixed)
RNA 1: CACCCGUGCAAAAUUGCAGGGGUCUAAAACCUUCUCCAAAUUGUUUCAUCCU
RNA 2: GGGAAUGGAUCCACAUCUACGAAUUCUAAAGGAUGAAACAAUUUGGAGAAGUGCAGAUCGGAAGAGCACACGU
B3: target 2 MT 5'PFS CUA 3'PFS UAG (mixed)
RNA 1: CACCCGUGCAAAAUUGCAGGGGUCUAAAACCUUCUCCAAAUUGUUUCAUCCU
RNA 2: GGGAAUGGAUCCACAUCUACGAAUUCCUAAGGAUGAAACAAUUUGGAGAAGUAGAGAUCGGAAGAGCACACGU
B4: target 2 MT 5'PFS GUC 3'PFS UGA (mixed)
RNA 1: CACCCGUGCAAAAUUGCAGGGGUCUAAAACCUUCUCCAAAUUGUUUCAUCCU
RNA 2: GGGAAUGGAUCCACAUCUACGAAUUCGUCAGGAUGAAACAAUUUGGAGAAGUGAAGAUCGGAAGAGCACACGU
B5: target 2 MT 5'PFS GGU 3'PFS CGA (mixed)
RNA 1: CACCCGUGCAAAAUUGCAGGGGUCUAAAACCUUCUCCAAAUUGUUUCAUCCU
RNA 2: GGGAAUGGAUCCACAUCUACGAAUUCGGUAGGAUGAAACAAUUUGGAGAAGCGAAGAUCGGAAGAGCACACGU
B6: target 2 MT 5'PFS GGU 3'PFS CGC (mixed)
RNA 1: CACCCGUGCAAAAUUGCAGGGGUCUAAAACCUUCUCCAAAUUGUUUCAUCCU
RNA 2: GGGAAUGGAUCCACAUCUACGAAUUCGGUAGGAUGAAACAAUUUGGAGAAGCGCAGAUCGGAAGAGCACACGU
B7: target 1 insG 3' of 4,insG 3' of 1 (mixed)
RNA 1: CACCCGUGCAAAAAUGCAGGGGUCUAAAACUGAGCGGAUAACCUCUCUAUGG
RNA 2: GGGAAUGGAUCCACAUCUACGAAUUCGUACCAUAGAGAGGUUAUCCGCGUCAGCCGAGAUCGGAAGAGCACACGU
B8: target 2 MT 5'PFS GGU 3'PFS CGG (mixed)
RNA 1: CACCCGUGCAAAAUUGCAGGGGUCUAAAACCUUCUCCAAAUUGUUUCAUCCU
RNA 2: GGGAAUGGAUCCACAUCUACGAAUUCGGUAGGAUGAAACAAUUUGGAGAAGCGGAGAUCGGAAGAGCACACGU
B9: target 2 MT 5'PFS GGC 3'PFS UUC (mixed)
RNA 1: CACCCGUGCAAAAUUGCAGGGGUCUAAAACCUUCUCCAAAUUGUUUCAUCCU
RNA 2: GGGAAUGGAUCCACAUCUACGAAUUCGGCAGGAUGAAACAAUUUGGAGAAGUUCAGAUCGGAAGAGCACACGU
B10: target 2 MT 5'PFS UAG 3'PFS CGC (mixed)
RNA 1: CACCCGUGCAAAAUUGCAGGGGUCUAAAACCUUCUCCAAAUUGUUUCAUCCU
RNA 2: GGGAAUGGAUCCACAUCUACGAAUUCUAGAGGAUGAAACAAUUUGGAGAAGCGCAGAUCGGAAGAGCACACGU
B11: target 2 MT 5'PFS GGU 3'PFS CGU (mixed)
RNA 1: CACCCGUGCAAAAUUGCAGGGGUCUAAAACCUUCUCCAAAUUGUUUCAUCCU
RNA 2: GGGAAUGGAUCCACAUCUACGAAUUCGGUAGGAUGAAACAAUUUGGAGAAGCGUAGAUCGGAAGAGCACACGU
B12: target 2 MT 5'PFS GGC 3'PFS UUA (mixed)
RNA 1: CACCCGUGCAAAAUUGCAGGGGUCUAAAACCUUCUCCAAAUUGUUUCAUCCU
RNA 2: GGGAAUGGAUCCACAUCUACGAAUUCGGCAGGAUGAAACAAUUUGGAGAAGUUAAGAUCGGAAGAGCACACGU
B13: target 2 MT 5'PFS AAC 3'PFS UAU (mixed)
RNA 1: CACCCGUGCAAAAUUGCAGGGGUCUAAAACCUUCUCCAAAUUGUUUCAUCCU
RNA 2: GGGAAUGGAUCCACAUCUACGAAUUCAACAGGAUGAAACAAUUUGGAGAAGUAUAGAUCGGAAGAGCACACGU
B14: target 2 MT 5'PFS AAC 3'PFS ACG (mixed)
RNA 1: CACCCGUGCAAAAUUGCAGGGGUCUAAAACCUUCUCCAAAUUGUUUCAUCCU
RNA 2: GGGAAUGGAUCCACAUCUACGAAUUCAACAGGAUGAAACAAUUUGGAGAAGACGAGAUCGGAAGAGCACACGU
B15: target 2 MT 5'PFS AAC 3'PFS ACC (mixed)
RNA 1: CACCCGUGCAAAAUUGCAGGGGUCUAAAACCUUCUCCAAAUUGUUUCAUCCU
RNA 2: GGGAAUGGAUCCACAUCUACGAAUUCAACAGGAUGAAACAAUUUGGAGAAGACCAGAUCGGAAGAGCACACGU
B16: target 2 MT 5'PFS GAC 3'PFS ACU (mixed)
RNA 1: CACCCGUGCAAAAUUGCAGGGGUCUAAAACCUUCUCCAAAUUGUUUCAUCCU
RNA 2: GGGAAUGGAUCCACAUCUACGAAUUCGACAGGAUGAAACAAUUUGGAGAAGACUAGAUCGGAAGAGCACACGU
B17: target 2 MT 5'PFS AUU 3'PFS CAA (mixed)
RNA 1: CACCCGUGCAAAAUUGCAGGGGUCUAAAACCUUCUCCAAAUUGUUUCAUCCU
RNA 2: GGGAAUGGAUCCACAUCUACGAAUUCAUUAGGAUGAAACAAUUUGGAGAAGCAAAGAUCGGAAGAGCACACGU
B18: target 1 U8G,A14G (mixed)
RNA 1: CACCCGUGCAAAAAUGCAGGGGUCUAAAACUGAGCGGAUAACCUCUCUAUGG
RNA 2: GGGAAUGGAUCCACAUCUACGAAUUCGUACCAUAGAGGGGUUAGCCGCUCACCGAGAUCGGAAGAGCACACGU
B19: target 2 MT 5'PFS AAC 3'PFS UAG (mixed)
RNA 1: CACCCGUGCAAAAUUGCAGGGGUCUAAAACCUUCUCCAAAUUGUUUCAUCCU
RNA 2: GGGAAUGGAUCCACAUCUACGAAUUCAACAGGAUGAAACAAUUUGGAGAAGUAGAGAUCGGAAGAGCACACGU
B20: target 2 MT 5'PFS AAC 3'PFS UAA (mixed)
RNA 1: CACCCGUGCAAAAUUGCAGGGGUCUAAAACCUUCUCCAAAUUGUUUCAUCCU
RNA 2: GGGAAUGGAUCCACAUCUACGAAUUCAACAGGAUGAAACAAUUUGGAGAAGUAAAGAUCGGAAGAGCACACGU
B21: target 2 MT 5'PFS AAC 3'PFS UAC (mixed)
RNA 1: CACCCGUGCAAAAUUGCAGGGGUCUAAAACCUUCUCCAAAUUGUUUCAUCCU
RNA 2: GGGAAUGGAUCCACAUCUACGAAUUCAACAGGAUGAAACAAUUUGGAGAAGUACAGAUCGGAAGAGCACACGU
B22: target 2 MT 5'PFS GAC 3'PFS ACA (mixed)
RNA 1: CACCCGUGCAAAAUUGCAGGGGUCUAAAACCUUCUCCAAAUUGUUUCAUCCU
RNA 2: GGGAAUGGAUCCACAUCUACGAAUUCGACAGGAUGAAACAAUUUGGAGAAGACAAGAUCGGAAGAGCACACGU
B23: target 2 MT 5'PFS GAC 3'PFS ACC (mixed)
RNA 1: CACCCGUGCAAAAUUGCAGGGGUCUAAAACCUUCUCCAAAUUGUUUCAUCCU
RNA 2: GGGAAUGGAUCCACAUCUACGAAUUCGACAGGAUGAAACAAUUUGGAGAAGACCAGAUCGGAAGAGCACACGU
B24: target 2 MT 5'PFS AAC 3'PFS ACU (mixed)
RNA 1: CACCCGUGCAAAAUUGCAGGGGUCUAAAACCUUCUCCAAAUUGUUUCAUCCU
RNA 2: GGGAAUGGAUCCACAUCUACGAAUUCAACAGGAUGAAACAAUUUGGAGAAGACUAGAUCGGAAGAGCACACGU
B25: target 2 MT 5'PFS GAC 3'PFS ACG (mixed)
RNA 1: CACCCGUGCAAAAUUGCAGGGGUCUAAAACCUUCUCCAAAUUGUUUCAUCCU
RNA 2: GGGAAUGGAUCCACAUCUACGAAUUCGACAGGAUGAAACAAUUUGGAGAAGACGAGAUCGGAAGAGCACACGU
B26: target 2 MT 5'PFS CGA 3'PFS UUC (mixed)
RNA 1: CACCCGUGCAAAAUUGCAGGGGUCUAAAACCUUCUCCAAAUUGUUUCAUCCU
RNA 2: GGGAAUGGAUCCACAUCUACGAAUUCCGAAGGAUGAAACAAUUUGGAGAAGUUCAGAUCGGAAGAGCACACGU
B27: target 2 MT 5'PFS ACU 3'PFS CUU (mixed)
RNA 1: CACCCGUGCAAAAUUGCAGGGGUCUAAAACCUUCUCCAAAUUGUUUCAUCCU
RNA 2: GGGAAUGGAUCCACAUCUACGAAUUCACUAGGAUGAAACAAUUUGGAGAAGCUUAGAUCGGAAGAGCACACGU
B28: target 2 MT 5'PFS GCC 3'PFS UCA (mixed)
RNA 1: CACCCGUGCAAAAUUGCAGGGGUCUAAAACCUUCUCCAAAUUGUUUCAUCCU
RNA 2: GGGAAUGGAUCCACAUCUACGAAUUCGCCAGGAUGAAACAAUUUGGAGAAGUCAAGAUCGGAAGAGCACACGU

Each binder was assayed against T1, EsCas13d, nuclease-dead (assay: crRNA (strand 1, pre-loaded); Mg2+; 40 mM Tris-HCl pH 7.5, 150 mM NaCl, 6 mM MgCl2, 1 mM DTT, 0.1% Tween-20, 0.2 mg/ml BSA; 25 C; 10 min per concentration, then washed). Details: tags: His6-TwinStrep-SUMO cleaved; N-terminal SNAP kept (SNAP-Surface 488); label: 3' end held by stalled T7 RNA polymerase.
In the case of B1, the Kd is reported as 27 ± 5 nM.
B2 gave a Kd of 5.6 ± 1.2 nM.
Binder B3 has a Kd of 1.9 ± 0.4 nM.
Binder B4 has a Kd of 17.4 ± 2.6 nM.
For B5, the Kd was 15.4 ± 2.1 nM.
Work on B6 yielded a Kd of 15.1 ± 1.4 nM.
Binder B7 has a Kd of 6 ± 0.4 nM.
Binder B8 has a Kd of 15.6 ± 1.4 nM.
Work on B9 yielded a Kd of 18.8 ± 2.3 nM.
Work on B10 yielded a Kd of 2.36 ± 0.26 nM.
With B11 the Kd was 22.3 ± 2.6 nM.
B12 was tested, and the Kd was 15.2 ± 1.8 nM.
For B13, the Kd was 5.4 ± 0.8 nM.
B14 showed a Kd of 6.1 ± 1.6 nM.
B15 was tested, and the Kd was 7 ± 2.4 nM.
B16 gave a Kd of 30 ± 10 nM.
Binder B17 has a Kd of 5 ± 0.6 nM.
Binder B18 has a Kd of 22.9 ± 1.2 nM.
B19 showed a Kd of 6.8 ± 1.6 nM.
B20 gave a Kd of 7.4 ± 2.6 nM.
For B21, the Kd was 5.2 ± 1.2 nM.
B22 was tested, and the Kd was 12.9 ± 2.6 nM.
B23 showed a Kd of 14.7 ± 2.3 nM.
B24 gave a Kd of 9.1 ± 3.1 nM.
Binder B25 has a Kd of 13.6 ± 2.1 nM.
B26 showed a Kd of 11.5 ± 1.9 nM.
B27 gave a Kd of 6.2 ± 0.6 nM.
With B28 the Kd was 17 ± 4 nM.
